From patent US20100048868A1

Biological target: recombinant human HER2 extracellular domain (human) (UniProt P04626)
Test: SPR (Biacore 2000), HER2-ECD immobilised, 1:1 model, 25 C

Kd: 3 nM
koff: 0.00076 s⁻¹
Substance: His6-(ZHER2 A)2 (designed binder)
